Assay results: US7294496B1, “Cloned human lysophospholipase” (The Regents of the University of California, priority 2000, dated 2007)

B1: Rat brain iPLA2: Ca2+-independent phospholipase A2 purified from rat brain (protein, UniProt P97570 1-807, looked up)
85/88 kDa calcium-independent …: MQFFGRLVNTLSSVTNLFSNPFRVKEVSLADYASSERVREEGQLILLQNASNRTWDCVLVSPRNPQSGFRLFQLESEADALVNFQQYSSQLPPFYESSVQVLHVEVLQHLTDLIRNHPSWTVTHLAVELGIRECFHHSRIISCANSTENEEGCTPLHLACRKGDSEILVELVQYCHAQMDVTDNKGETAFHYAVQGDNPQVLQLLGKNASAGLNQVNNQGLTPLHLACQMGKQEMVRVLLLCNARCNIMGPGGFPIHTAMKFSQKGCAEMIISMDSNQIHSKDPRYGASPLHWAKNAEMARMLLKRGCDVDSTSASGNTALHVAVTRNRFDCVMVLLTYGANAGARGEHGNTPLHLAMSKDNMEMVKALIVFGAEVDTPNDFGETPAFIASKISKLITRKALLTLLKTVGADYHFPFIQGVSTEQSSAAGPHPFFSLDRTQPPTISLNNLELQDLMPVSRARKPAFILSSMRDEKRSHDHLLCLDGGGVKGLVIIQLLIAIEKASGVATKDLFDWVAGTSTGGILALAILHSKSMAYMRGVYFRMKDEVFRGSRPYESGPLEEFLKREFGEHTKMTDVKKPKVMLTGTLSDRQPAELHLFRNYDAPEAVREPRCTPNINLKPPTQPADQLVWRAARSSGAAPTYFRPNGRFLDGGLLANNPTLDAMTEIHEYNQDMIRKGQGNKVKKLSIVVSLGTGKSPQVPVTCVDVFRPSNPWELAKTVFGAKELGKMVVDCCTDPDGRAVDRARAWCEMVGIQYFRLNPQLGSDIMLDEVSDAVLVNALWETEVYIYEHREEFQKLVQLLLSP
B2: Human Recombinant cPLA2: human recombinant cytosolic Ca2+-dependent phospholipase A2, gift from Lilly Laboratories (protein, UniProt P47712 1-749, looked up)
Cytosolic phospholipase A2: MSFIDPYQHIIVEHQYSHKFTVVVLRATKVTKGAFGDMLDTPDPYVELFISTTPDSRKRTRHFNNDINPVWNETFEFILDPNQENVLEITLMDANYVMDETLGTATFTVSSMKVGEKKEVPFIFNQVTEMVLEMSLEVCSCPDLRFSMALCDQEKTFRQQRKEHIRESMKKLLGPKNSEGLHSARDVPVVAILGSGGGFRAMVGFSGVMKALYESGILDCATYVAGLSGSTWYMSTLYSHPDFPEKGPEEINEELMKNVSHNPLLLLTPQKVKRYVESLWKKKSSGQPVTFTDIFGMLIGETLIHNRMNTTLSSLKEKVNTAQCPLPLFTCLHVKPDVSELMFADWVEFSPYEIGMAKYGTFMAPDLFGSKFFMGTVVKKYEENPLHFLMGVWGSAFSILFNRVLGVSGSQSRGSTMEEELENITTKHIVSNDSSDSDDESHEPKGTENEDAGSDYQSDNQASWIHRMIMALVSDSALFNTREGRAGKVHNFMLGLNLNTSYPLSPLSDFATQDSFDDDELDAAVADPDEFERIYEPLDVKSKKIHVVDSGLTFNLPYPLILRPQRGVDLIISFDFSARPSDSSPPFKELLLAEKWAKMNKLPFPKIDPYVFDREGLKECYVFKPKNPDMEKDCPTIIHFVLANINFRKYRAPGVPRETEEEKEIADFDIFDDPESPFSTFNFQYPNQAFKRLHDLMHFNTLNNIDVIKEAMVESIEYRRQNPSRCSVSLSNVEARRFFNKEFLSKPKA

Tests used:
Type in all cases: biochemical
[1] = PLA2 activity assay toward PAPC; details: 100 mM Hepes, 2 mM DTT
Method: (§1) The protein concentration was determined by the Bio-Rad protein assay, using bovine serum albumin (BSA) as standard. Protein purity was examined using 12% SDS-PAGE and Coomassie blue staining. LysoPLA activity was measured at 40° C. in the assay buier containing LysoPC, 100 mM Tris-HCl (pH 8.0) and 10 mM LMe. Cold 1-palmitoyl-sn-glycero-3-phosphorylcholine (125 μM, unless indicated otherwise) was mixed with 1-[14 C]palmitoyl-sn-glycero-3-phosphorylcholine (100,000 cpm) in a total volume of 0.5 ml. The assay was initiated by adding an aliquot of enzyme solution to the substrate mixture and incubating for the desired time. The released fatty acid was extracted by the modified Dole method and then quantified by scintillation counting. The PLA2 activity assay was carried out, using various ^14C-labeled phospholipid substrates under various conditions as given in the text. The rat brain iPLA2 was purified as described elsewhere (H. C. Yang et al., manuscript in preparation incorporated herein). Human recombinant cPLA2 was a gift from Drs. J. D. Sharp and R. M. Kramer at Lilly Laboratories. 1-[^14C]Palmitoyl-sn-glycero-3-phosphorylcholine and 1-palmitoyl-2-[1-^14C]palmitoyl-sn-glycerol-3-phosphorylcholine were purchased from Amersham. 1-Palmitoyl-2-[1-^14C]arachidonoyl-sn-glycerol-3-phosphorylcholine was purchased from DuPont-NEN. All unlabeled phospholipids were purchased from Avanti Polar Lipids. Triton X-100 (TX-100) and PIP2 were obtained from CalBiochem.
(§2) When we first purified the mouse LysoPLA from P388D1 cells, no other enzymatic activities (PLA1, PLA2, acyltransferase, transacylase and esterase) were found. Therefore, it appears to be a LysoPL-specific LysoPLA. Similar results were obtained for the rat LysoPLA and the relative rates towards different LysoPL substrates were reported [Sugimoto et al., (1996) J. Biol. Chem. 271, 7705-11]. However, a recently sequenced rabbit enzyme that shares high sequence homology (approx. 97%) to the rat/mouse LysoPLA was reported to have both PLA2 and LysoPLA activities [Portilla, et al., […] J. Am. Soc.Nephrol. 9, 1178-86]. The specific activities, however, were only 10 nmol/min/mg for PLA2 activity and 20 nmol/min/mg for LysoPLA activity. The PLA2 activity was also reported to be selective for PlsCho substrate with arachidonic acid at the sn2 position. To determine whether hLysoPLA also expresses PLA2 activity, we have explored its ability to hydrolyze arachidonic acid labeled PlsCho as well as other phospholipid substrates under a variety of conditions.

[2] = PLA2 activity assay toward plasmenylcholine; details: for Activity: 100 mM Hepes, 2 mM DTT
Method: as §1
The sn-2 labeled PlsCho (plasmenylcholine or 1-O— (Z)-1P-alkenyl-2-arachidonoyl-sn-glycero-3-phosphocholine) was synthesized as follows. A total of 4 μmol [1-14C]arachidonic acid (from NEN, with specific activity […]) was diluted 10 times with cold arachidonic acid in 250 μl distilled methylene chloride (Fisher Scientific). To this 0.04 mmol p(N,N-dimethyl)amino pyridine (Aldrich) and 0.08 mmol 1,3-dicyclohexyl carbodiimide (Aldrich) were added to yield the arachidonoyl anhydride upon 1 h of stirring. Lysoplasmenylcholine (0.06 mmol, from Serdary) dissolved in 200 μl methylene chloride and 50 μl pyridine (Fisher Scienticc) was added to the arachidonoyl anhydride solution with 0.03 μmol dimethylaminopyridine and left stirring for 8 h. The reaction progress was monitored by thin layer chromatography (Merck) using a mobile phase of chloroform:methanol:triethyl amine:water (65:30:1.5:3.5), and retardation factors were 0.6 and 0.2 for PlsCho and LysoPlsCho, respectively. The separation of the product was carried out by preparative layer chromatography (Merck) in the above mobile system. The reaction yielded a total of 3.6 mg (7.7 μmol) of radiolabeled PlsCho (specific activity 0.18 μCi/μmol) by quantitative phosphate analysis.
as §2

[3] = PLA2 activity assay toward DPPC; details: DPPC/TX-100 mixed micelles (100 μM:400 μM); 100 mM Hepes, pH 7.5, 2 mM DTT, 5 mM EDTA
Method: as §1, §2

Molecule | Activity ([1]; PAPC/TX-100 mixed micelles (100 μM:400 μM), pH 7.5, 5 mM EDTA) | Activity ([2]; PisCho/TX-100 mixed micelles (100 μM:600 μM), pH 7.5, 5 mM EDTA) | fold lower activity toward PlsCho than toward DPPC ([2]; TX-100 mixed micelles) | fold lower activity toward PlsCho than toward PAPC ([2]; TX-100 mixed micelles) | Activity [3] | Activity ([1]; PAPC/PIP2/TX-100 mixed micelles (97 μM:3 μM:400 μM), pH 7.5, 80 μM Ca2+, 0.1 mg/ml BSA) | Activity ([2]; PisCho/PIP2/TX-100 mixed micelles (100 μM:3 μM:600 μM), pH 7.5, 80 μM Ca2+, 0.1 mg/ml BSA) | activity toward PlsCho relative to activity toward PAPC ([2]; in the presence of 3 mol % PIP2, same conditions)
B1 | 2.0 ± 0.04 µmol/min/mg | 0.53 ± 0.03 µmol/min/mg | 10 fold | 4 fold | 5.6 ± 0.2 µmol/min/mg | – | – | –
B2 | – | – | – | – | – | 21.81 ± 0.09 µmol/min/mg | 13.58 ± 0.05 µmol/min/mg | about 60%
